Target: MT1-MMPmCh ΔDKV (UniProt P50281)

LIM Kinase-1 (from UniProt P53667 1-647) (natural protein)
tyrosine phosphorylation (4G10 blot) of precipitated MT1-MMPmCh by recombinant GST-LIMK1 in an in vitro kinase assay, ΔDKV against WT: 60 % decrease

From article PMC4847008
